Results reported in the supplement of paper PMC10567573.

B1: ZNF8 (parent)
chain: KPYTCSVCGKSFSRTTCLFLHLRT

Variants of: B1
Assay: protein stability index of a GFP-peptide fusion (GPS, HEK-293T) (PSI 1-6); higher = more stable
Conditions: c terminus: a fixed tail appended
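Note: lentivirally expressed fusions sorted by FACS into six bins by GFP to DsRed ratio, PSI derived from sequencing read proportions per bin multiplied by bin number.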

For KPYTCSMCGKSFSRTTCLFLHLRT [V7M], which protein stability index is on record?
The protein stability index was 2.29.

For KPYTCSACGKSFSRTTCLFLHLRT [V7A], which protein stability index is on record?
The protein stability index was 2.12.

With KPYTCSHCGKSFSRTTCLFLHLRT [V7H] as the variant, how does the protein stability index read?
The protein stability index was 1.44.

Which protein stability index does the source give for KPYTCSWCGKSFSRTTCLFLHLRT [V7W] here?
Its protein stability index is 1.85.

With KPYTCSCCGKSFSRTTCLFLHLRT [V7C] as the variant, how does the protein stability index read?
Its protein stability index is 2.82.

For KPYTCSGCGKSFSRTTCLFLHLRT [V7G], which protein stability index is on record?
The protein stability index was 2.3.

For KPYTCSNCGKSFSRTTCLFLHLRT [V7N], which protein stability index is on record?
The protein stability index was 2.15.

For KPYTCSLCGKSFSRTTCLFLHLRT [V7L], which protein stability index is on record?
Its protein stability index is 2.87.

With KPYTCSPCGKSFSRTTCLFLHLRT [V7P] as the variant, how does the protein stability index read?
The protein stability index was 2.7.

For KPYTCSSCGKSFSRTTCLFLHLRT [V7S], which protein stability index is on record?
The protein stability index was 2.04.

For KPYTCSICGKSFSRTTCLFLHLRT [V7I], which protein stability index is on record?
Its protein stability index is 2.2.

For KPYTCSRCGKSFSRTTCLFLHLRT [V7R], which protein stability index is on record?
Its protein stability index is 1.68.

With KPYTCSYCGKSFSRTTCLFLHLRT [V7Y] as the variant, how does the protein stability index read?
The protein stability index was 2.3.

With KPYTCSQCGKSFSRTTCLFLHLRT [V7Q] as the variant, how does the protein stability index read?
The protein stability index was 3.32.

Which protein stability index does the source give for KPYTCSDCGKSFSRTTCLFLHLRT [V7D] here?
The protein stability index was 1.71.

Which protein stability index does the source give for KPYTCSKCGKSFSRTTCLFLHLRT [V7K] here?
Its protein stability index is 1.75.

With KPYTCSFCGKSFSRTTCLFLHLRT [V7F] as the variant, how does the protein stability index read?
Its protein stability index is 2.8.

For KPYTCSTCGKSFSRTTCLFLHLRT [V7T], which protein stability index is on record?
The protein stability index was 1.91.

Which protein stability index does the source give for KPYTCSECGKSFSRTTCLFLHLRT [V7E] here?
The protein stability index was 2.09.

Which protein stability index does the source give for KPYTCSVSGKSFSRTTCLFLHLRT [C8S] here?
The protein stability index was 3.95.

Which protein stability index does the source give for KPYTCSVDGKSFSRTTCLFLHLRT [C8D] here?
The protein stability index was 3.17.

With KPYTCSVMGKSFSRTTCLFLHLRT [C8M] as the variant, how does the protein stability index read?
The protein stability index was 2.19.

For KPYTCSVVGKSFSRTTCLFLHLRT [C8V], which protein stability index is on record?
The protein stability index was 1.97.

For KPYTCSVIGKSFSRTTCLFLHLRT [C8I], which protein stability index is on record?
Its protein stability index is 2.07.

Which protein stability index does the source give for KPYTCSVLGKSFSRTTCLFLHLRT [C8L] here?
The protein stability index was 2.28.

Which protein stability index does the source give for KPYTCSVAGKSFSRTTCLFLHLRT [C8A] here?
Its protein stability index is 2.56.

Which protein stability index does the source give for KPYTCSVQGKSFSRTTCLFLHLRT [C8Q] here?
The protein stability index was 4.56.

For KPYTCSVKGKSFSRTTCLFLHLRT [C8K], which protein stability index is on record?
Its protein stability index is 2.45.

For KPYTCSVWGKSFSRTTCLFLHLRT [C8W], which protein stability index is on record?
Its protein stability index is 2.5.

For KPYTCSVRGKSFSRTTCLFLHLRT [C8R], which protein stability index is on record?
Its protein stability index is 3.12.

For KPYTCSVFGKSFSRTTCLFLHLRT [C8F], which protein stability index is on record?
The protein stability index was 4.22.

Which protein stability index does the source give for KPYTCSVEGKSFSRTTCLFLHLRT [C8E] here?
The protein stability index was 3.46.

With KPYTPSVCGKSFSRTTCLFLHLRT [C5P] as the variant, how does the protein stability index read?
Its protein stability index is 2.38.

Which protein stability index does the source give for KPYTNSVCGKSFSRTTCLFLHLRT [C5N] here?
Its protein stability index is 2.43.

Which protein stability index does the source give for KPYTESVCGKSFSRTTCLFLHLRT [C5E] here?
Its protein stability index is 3.3.

For KPYTMSVCGKSFSRTTCLFLHLRT [C5M], which protein stability index is on record?
The protein stability index was 2.18.

With KPYTKSVCGKSFSRTTCLFLHLRT [C5K] as the variant, how does the protein stability index read?
The protein stability index was 3.15.

With KPYTASVCGKSFSRTTCLFLHLRT [C5A] as the variant, how does the protein stability index read?
Its protein stability index is 1.97.

With KPYTSSVCGKSFSRTTCLFLHLRT [C5S] as the variant, how does the protein stability index read?
Its protein stability index is 1.56.

With KPYTQSVCGKSFSRTTCLFLHLRT [C5Q] as the variant, how does the protein stability index read?
Its protein stability index is 2.29.

For KPYTGSVCGKSFSRTTCLFLHLRT [C5G], which protein stability index is on record?
Its protein stability index is 3.6.

With KPYTYSVCGKSFSRTTCLFLHLRT [C5Y] as the variant, how does the protein stability index read?
The protein stability index was 2.21.

With KPYTTSVCGKSFSRTTCLFLHLRT [C5T] as the variant, how does the protein stability index read?
The protein stability index was 3.19.

With KPYTLSVCGKSFSRTTCLFLHLRT [C5L] as the variant, how does the protein stability index read?
The protein stability index was 3.52.

For KPYTDSVCGKSFSRTTCLFLHLRT [C5D], which protein stability index is on record?
Its protein stability index is 1.96.

For KPYTWSVCGKSFSRTTCLFLHLRT [C5W], which protein stability index is on record?
Its protein stability index is 2.06.

Which protein stability index does the source give for KPYTFSVCGKSFSRTTCLFLHLRT [C5F] here?
The protein stability index was 2.46.

With KPYTISVCGKSFSRTTCLFLHLRT [C5I] as the variant, how does the protein stability index read?
Its protein stability index is 3.17.

Which protein stability index does the source give for KPYTCFVCGKSFSRTTCLFLHLRT [S6F] here?
Its protein stability index is 2.08.

Which protein stability index does the source give for KPYTCKVCGKSFSRTTCLFLHLRT [S6K] here?
The protein stability index was 2.46.

For KPYTCIVCGKSFSRTTCLFLHLRT [S6I], which protein stability index is on record?
Its protein stability index is 1.41.

Which protein stability index does the source give for KPYTCQVCGKSFSRTTCLFLHLRT [S6Q] here?
The protein stability index was 2.13.

With KPYTCYVCGKSFSRTTCLFLHLRT [S6Y] as the variant, how does the protein stability index read?
Its protein stability index is 1.6.

Which protein stability index does the source give for KPYTCWVCGKSFSRTTCLFLHLRT [S6W] here?
Its protein stability index is 1.66.

With KPYTCDVCGKSFSRTTCLFLHLRT [S6D] as the variant, how does the protein stability index read?
The protein stability index was 2.28.

With KPYTCGVCGKSFSRTTCLFLHLRT [S6G] as the variant, how does the protein stability index read?
The protein stability index was 2.48.

Which protein stability index does the source give for KPYTCRVCGKSFSRTTCLFLHLRT [S6R] here?
Its protein stability index is 2.14.

Which protein stability index does the source give for KPYTCNVCGKSFSRTTCLFLHLRT [S6N] here?
The protein stability index was 2.39.

Which protein stability index does the source give for KPYTCHVCGKSFSRTTCLFLHLRT [S6H] here?
Its protein stability index is 2.15.

With KPYTCLVCGKSFSRTTCLFLHLRT [S6L] as the variant, how does the protein stability index read?
Its protein stability index is 1.93.

With KPYTCPVCGKSFSRTTCLFLHLRT [S6P] as the variant, how does the protein stability index read?
Its protein stability index is 2.25.

For KPYTCVVCGKSFSRTTCLFLHLRT [S6V], which protein stability index is on record?
The protein stability index was 2.45.

With KPYTCEVCGKSFSRTTCLFLHLRT [S6E] as the variant, how does the protein stability index read?
The protein stability index was 1.85.

For KPYTCCVCGKSFSRTTCLFLHLRT [S6C], which protein stability index is on record?
The protein stability index was 1.71.

For KPYTCTVCGKSFSRTTCLFLHLRT [S6T], which protein stability index is on record?
Its protein stability index is 1.73.

For KPYTCAVCGKSFSRTTCLFLHLRT [S6A], which protein stability index is on record?
The protein stability index was 2.4.

For KPYTCMVCGKSFSRTTCLFLHLRT [S6M], which protein stability index is on record?
Its protein stability index is 1.63.

With KPYTCSVCMKSFSRTTCLFLHLRT [G9M] as the variant, how does the protein stability index read?
Its protein stability index is 2.38.

For KPYTCSVCLKSFSRTTCLFLHLRT [G9L], which protein stability index is on record?
The protein stability index was 2.25.

With KPYTCSVCAKSFSRTTCLFLHLRT [G9A] as the variant, how does the protein stability index read?
Its protein stability index is 2.76.

For KPYTCSVCCKSFSRTTCLFLHLRT [G9C], which protein stability index is on record?
The protein stability index was 2.43.

With KPYTCSVCHKSFSRTTCLFLHLRT [G9H] as the variant, how does the protein stability index read?
Its protein stability index is 2.24.

For KPYTCSVCFKSFSRTTCLFLHLRT [G9F], which protein stability index is on record?
The protein stability index was 2.12.

For KPYTCSVCKKSFSRTTCLFLHLRT [G9K], which protein stability index is on record?
The protein stability index was 1.87.

With KPYTCSVCEKSFSRTTCLFLHLRT [G9E] as the variant, how does the protein stability index read?
Its protein stability index is 1.71.

With KPYTCSVCIKSFSRTTCLFLHLRT [G9I] as the variant, how does the protein stability index read?
Its protein stability index is 2.92.

For KPYTCSVCDKSFSRTTCLFLHLRT [G9D], which protein stability index is on record?
Its protein stability index is 1.8.

With LPYTCSVCGKSFSRTTCLFLHLRT [K1L] as the variant, how does the protein stability index read?
Its protein stability index is 2.27.

For VPYTCSVCGKSFSRTTCLFLHLRT [K1V], which protein stability index is on record?
The protein stability index was 1.72.

With NPYTCSVCGKSFSRTTCLFLHLRT [K1N] as the variant, how does the protein stability index read?
The protein stability index was 2.36.

Which protein stability index does the source give for PPYTCSVCGKSFSRTTCLFLHLRT [K1P] here?
The protein stability index was 1.91.

With GPYTCSVCGKSFSRTTCLFLHLRT [K1G] as the variant, how does the protein stability index read?
The protein stability index was 2.48.

Which protein stability index does the source give for HPYTCSVCGKSFSRTTCLFLHLRT [K1H] here?
Its protein stability index is 2.1.

With CPYTCSVCGKSFSRTTCLFLHLRT [K1C] as the variant, how does the protein stability index read?
The protein stability index was 2.08.

With QPYTCSVCGKSFSRTTCLFLHLRT [K1Q] as the variant, how does the protein stability index read?
The protein stability index was 2.39.

For APYTCSVCGKSFSRTTCLFLHLRT [K1A], which protein stability index is on record?
Its protein stability index is 2.74.

With DPYTCSVCGKSFSRTTCLFLHLRT [K1D] as the variant, how does the protein stability index read?
Its protein stability index is 2.46.

Which protein stability index does the source give for EPYTCSVCGKSFSRTTCLFLHLRT [K1E] here?
Its protein stability index is 2.19.

For IPYTCSVCGKSFSRTTCLFLHLRT [K1I], which protein stability index is on record?
The protein stability index was 2.04.

With FPYTCSVCGKSFSRTTCLFLHLRT [K1F] as the variant, how does the protein stability index read?
The protein stability index was 2.19.

For MPYTCSVCGKSFSRTTCLFLHLRT [K1M], which protein stability index is on record?
The protein stability index was 2.22.

With RPYTCSVCGKSFSRTTCLFLHLRT [K1R] as the variant, how does the protein stability index read?
The protein stability index was 2.26.

For SPYTCSVCGKSFSRTTCLFLHLRT [K1S], which protein stability index is on record?
Its protein stability index is 1.93.

Which protein stability index does the source give for YPYTCSVCGKSFSRTTCLFLHLRT [K1Y] here?
The protein stability index was 2.24.
